Measurements reported in the supplement of paper PMC7877785.
± gives the uncertainty stated by the source.

Test: self-splicing fitness, log relative to wild type (ln ratio); higher = more splicing; Tetrahymena group I intron in knt gene, E. coli kanamycin selection, DiMSum; sequences stand for … in CUCUCU…GGAGGGAAAAGUUAUCAGGCAUGCACCUGGUAGCUAGUCUUUAAACCAAUAGAUUGCAUCGGUUUAAAAGGCAAGACCGUCAAAUUGCGGGAAAGGGGUCAACAGCCGUUCAGUACCAAGUCUCAGGGGAAACUUUGAGAUGGCCUUGCAAAGGGUAUGGUAAUAAGCUGACGGACAUGGUCCUAACCACGCAGCCAAGUCCUAAGUCAACAGAUCUUCUGUUGAUAUGGAUGCAGUUCACAGACUAAAUGUCGGUCGGGGAAGAUGUAUUCUUCUCAUAAGAUAUAGUCGGACCUCUCCUUAAUGGGAGCUAGCGGAUGAAGUGAUGCAACACUGGAGCCGCUGGGAACUAAUUUGUAUGCGAAAGUAUAUUGAUUAGUUUUGGAGUACUCGUGGUCG
In short: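 Library with all eight P1ex-region intron nucleotides randomised, intron inside the knt kanamycin-resistance gene on pET-22b(+), in E. coli BL21(DE3). Cells grew overnight at 37°C or 30°C on LB agar with or without 25 μg/mL kanamycin (plus 100 μg/mL carbenicillin, 50 μM IPTG, 0.2% rhamnose), in six replicate transformations. Pooled colonies were amplicon-sequenced on Illumina HiSeq 2500. DiMSum fitness is the error-weighted combination of wild-type-normalised replicate fold changes, kanamycin versus none.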

Sequence	self-splicing fitness (ln) (30 °C)	self-splicing fitness (ln) (37 °C)
UACCAGCAAUAUUACGCGCC	-1.46 ± 0.12	-1.1 ± 0.2
UACCAGCAAUAUUACGCGUA	-1.9 ± 0.074	-1.67 ± 0.093
UACCAGCAAUAUUACGGAAC	-3.57 ± 0.44	-3.27 ± 0.27
UACCAGCAAUAUUACGGGAA	-0.38 ± 0.087	-0.618 ± 0.08
UACCAGCAAUAUUACGGGGA	-1.24 ± 0.083	-0.746 ± 0.083
UACCAGCAAUAUUACGGGUA	-3.45 ± 0.14	-3.02 ± 0.15
UACCAGCAAUAUUACGGUGC	-3.21 ± 0.12	-2.64 ± 0.2
UACCAGCAAUAUUACGUAAG	-3.73 ± 0.15	-1.99 ± 0.15
UACCAGCAAUAUUACGUAGA	-1.27 ± 0.072	-0.78 ± 0.091
UACCAGCAAUAUUACGUAUG	-2.62 ± 0.073	-1.58 ± 0.082
UACCAGCAAUAUUACGUCAA	-1.19 ± 0.079	-0.33 ± 0.086
UACCAGCAAUAUUACGUCCG	-0.95 ± 0.058	-0.0389 ± 0.083
UACCAGCAAUAUUACGUGGA	-2.89 ± 0.15	-2.08 ± 0.12
UACGAGCAAUAUUACGAAGG		-0.765 ± 0.3
UACGAGCAAUAUUACGAGAU	-3.99 ± 0.46	-2.99 ± 0.38
UACGAGCAAUAUUACGAGGU	-3.41 ± 0.19	-3.16 ± 0.17
UACGAGCAAUAUUACGAGUC	-2.81 ± 0.38	-3.01 ± 0.43
UACGAGCAAUAUUACGAGUU	-2.32 ± 0.2	-0.892 ± 0.23
UACGAGCAAUAUUACGCAAC	-2.85 ± 0.22	-2.19 ± 0.26
UACGAGCAAUAUUACGCAUU	-3.48 ± 0.43	-2.09 ± 0.46
UACGAGCAAUAUUACGCCAA	-2.18 ± 0.41	
UACGAGCAAUAUUACGCCGC	-2.03 ± 0.41	-2.1 ± 0.3
UACGAGCAAUAUUACGCCUA	-1.81 ± 0.15	-0.823 ± 0.16
UACGAGCAAUAUUACGCGCA	-1.42 ± 0.19	-1.03 ± 0.17
UACGAGCAAUAUUACGCGGC	-3.65 ± 0.37	-2.28 ± 0.28

Sequence	self-splicing fitness (ln) (30 °C)	self-splicing fitness (ln) (37 °C)
UACGAGCAAUAUUACGGAGA	-3.09 ± 0.33	-2.84 ± 0.45
UACGAGCAAUAUUACGGAUG	-2.95 ± 0.43	-1.27 ± 0.34
UACGAGCAAUAUUACGGCAG	-2.22 ± 0.23	-1.65 ± 0.21
UACGAGCAAUAUUACGGCCG	-0.704 ± 0.13	-1.01 ± 0.21
UACGAGCAAUAUUACGGUGU		-3.09 ± 0.29
UACGAGCAAUAUUACGUCAU	-4.92 ± 0.45	-3.92 ± 0.39
UACGAGCAAUAUUACGUCGC	-3.3 ± 0.47	-2.49 ± 0.42
UACGAGCAAUAUUACGUGCC	-2.35 ± 0.29	
UACGAGCAAUAUUACGUUAA	-3.08 ± 0.26	-1.57 ± 0.14
UACGAGCAAUAUUACGUUAC	-2.96 ± 0.42	
UACGAGCAAUAUUACGUUGG		-2.22 ± 0.26
UACUAGCAAUAUUACGACCU	-2.01 ± 0.13	-0.83 ± 0.15
UACUAGCAAUAUUACGACGA	-0.687 ± 0.058	-0.172 ± 0.066
UACUAGCAAUAUUACGACUC	-1.8 ± 0.42	-0.907 ± 0.34
UACUAGCAAUAUUACGACUU	-1.27 ± 0.08	-0.271 ± 0.11
UACUAGCAAUAUUACGAUAC	-2.63 ± 0.2	-1.91 ± 0.25
UACUAGCAAUAUUACGAUCA	-1.21 ± 0.07	-0.774 ± 0.063
UACUAGCAAUAUUACGAUCG	0.0068 ± 0.092	0.387 ± 0.12
UACUAGCAAUAUUACGCAAC	-2.26 ± 0.26	-1.85 ± 0.34
UACUAGCAAUAUUACGCAAG	-2.98 ± 0.33	-1.72 ± 0.24
UACUAGCAAUAUUACGCCUC	-2.28 ± 0.24	-1.78 ± 0.28
UACUAGCAAUAUUACGCUAA	-1.31 ± 0.14	-0.697 ± 0.1
UACUAGCAAUAUUACGCUAU	-2.8 ± 0.21	-1.32 ± 0.16
UACUAGCAAUAUUACGCUUA	-1.38 ± 0.11	-0.588 ± 0.11
UACUAGCAAUAUUACGGACG	-0.258 ± 0.098	0.0809 ± 0.12

Sequence	self-splicing fitness (ln) (30 °C)	self-splicing fitness (ln) (37 °C)
UACUAGCAAUAUUACGGAGG	-2.77 ± 0.17	-1.28 ± 0.13
UACUAGCAAUAUUACGGCCG	0.508 ± 0.14	0.00712 ± 0.17
UACUAGCAAUAUUACGUCAG	-1.72 ± 0.2	-1.43 ± 0.21
UACUAGCAAUAUUACGUCGU	-2.15 ± 0.16	-1.96 ± 0.18
UACUAGCAAUAUUACGUGAC	-2.29 ± 0.13	-1.93 ± 0.26
UACUAGCAAUAUUACGUGGG	-3.32 ± 0.19	-2.46 ± 0.18
UACUAGCAAUAUUACGUUCA	-0.586 ± 0.08	-0.193 ± 0.09
UAGAAGCAAUAUUACGAACG	-0.0437 ± 0.11	0.576 ± 0.14
UAGAAGCAAUAUUACGAAGC		-2.2 ± 0.24
UAGAAGCAAUAUUACGAGGU		-2.14 ± 0.2
UAGAAGCAAUAUUACGCAAG	-2.33 ± 0.2	-0.64 ± 0.17
UAGAAGCAAUAUUACGCAGC	-4.25 ± 0.46	-2.93 ± 0.31
UAGAAGCAAUAUUACGCAUU	-2.41 ± 0.29	-2.59 ± 0.3
UAGAAGCAAUAUUACGCUCU	-2.53 ± 0.2	-2.75 ± 0.32
UAGAAGCAAUAUUACGCUUA	-1.9 ± 0.15	-0.832 ± 0.14
UAGAAGCAAUAUUACGGACC	-2 ± 0.4	-0.433 ± 0.34
UAGAAGCAAUAUUACGGAGA	-3.26 ± 0.39	-2.46 ± 0.26
UAGAAGCAAUAUUACGGCCU	-0.838 ± 0.12	-1.15 ± 0.15
UAGAAGCAAUAUUACGGGUA	-1.02 ± 0.16	-0.329 ± 0.14
UAGAAGCAAUAUUACGGUAA	-1.64 ± 0.091	-0.669 ± 0.073
UAGAAGCAAUAUUACGGUCG	-0.229 ± 0.1	0.153 ± 0.14
UAGAAGCAAUAUUACGUAAG	-2.31 ± 0.13	-1.3 ± 0.16
UAGAAGCAAUAUUACGUCAG	-0.574 ± 0.078	-0.0756 ± 0.092
UAGAAGCAAUAUUACGUCAU	-2.84 ± 0.2	-1.99 ± 0.15
UAGAAGCAAUAUUACGUCCA	-0.0908 ± 0.069	0.309 ± 0.1

Sequence	self-splicing fitness (ln) (30 °C)	self-splicing fitness (ln) (37 °C)
UAGAAGCAAUAUUACGUCGA	-1.61 ± 0.14	-0.578 ± 0.14
UAGAAGCAAUAUUACGUGAA	-2.05 ± 0.07	-1.5 ± 0.092
UAGAAGCAAUAUUACGUGGG	-3.09 ± 0.18	-2 ± 0.19
UAGAAGCAAUAUUACGUGUG	-0.994 ± 0.069	-0.74 ± 0.084
UAGCAGCAAUAUUACGAAAU	-1.96 ± 0.24	-1.66 ± 0.28
UAGCAGCAAUAUUACGACAC		-2.15 ± 0.33
UAGCAGCAAUAUUACGACAG	-0.896 ± 0.1	-0.68 ± 0.13
UAGCAGCAAUAUUACGACGC	-3.94 ± 0.31	-1.82 ± 0.19
UAGCAGCAAUAUUACGAGCU	-1.5 ± 0.13	-0.893 ± 0.14
UAGCAGCAAUAUUACGAUAU	-2.42 ± 0.15	-2.98 ± 0.19
UAGCAGCAAUAUUACGAUCU	-1.92 ± 0.081	-1.08 ± 0.077
UAGCAGCAAUAUUACGCACG	-0.945 ± 0.13	-0.318 ± 0.14
UAGCAGCAAUAUUACGCCAG	-1.46 ± 0.13	-0.751 ± 0.19
UAGCAGCAAUAUUACGCCCA	-0.744 ± 0.3	0.445 ± 0.47
UAGCAGCAAUAUUACGGAAA	-1.82 ± 0.17	-1.81 ± 0.29
UAGCAGCAAUAUUACGGACU	-1.07 ± 0.1	-0.713 ± 0.15
UAGCAGCAAUAUUACGGCGC	-2.08 ± 0.23	0.611 ± 0.23
UAGCAGCAAUAUUACGGUCC	-3.66 ± 0.26	-2.03 ± 0.24
UAGCAGCAAUAUUACGGUUA	-0.0652 ± 0.056	-0.181 ± 0.064
UAGCAGCAAUAUUACGUAAC	-3.52 ± 0.19	-2.42 ± 0.21
UAGCAGCAAUAUUACGUCGA	-1.12 ± 0.071	-0.528 ± 0.082
UAGCAGCAAUAUUACGUGGA	-2.16 ± 0.12	-1.46 ± 0.11
UAGCAGCAAUAUUACGUUAU	-3.74 ± 0.23	-2.92 ± 0.24
